Measured values as given in publication PMC4119840 (Biochimie, 2014).
Where “and” joins values, the source holds several entries; their conditions need not be identical. Equal entries are not always repeated.

Target: the molecule itself
Assay: SEC

B1: mouse Serum amyloid A 1.1 (SAA1.1), lipid-free (natural protein)
chain: GFFSFIGEAFQGAGDMWRAYTDMKEAGWKDGDKYFHARGNYDAAQRGPGGVWAAEKISDARESFQEFFGRGHEDTMADQEANRHGRSGKDPNYYRPPGLPAKY
**Q.** With B1 as the protein, how does the “stoichiometry N” value read?
**A.** 12 and 4
